Source: patent US20200164032A1 (WASHINGTON UNIVERSITY, published 2020)

Legend:
human CCL3 = biological target: T1, human CCL3 (human, UniProt P10147 23-92); assay: SPR, R17 264GG(G)DS267 on CM5 chip, hCCL3 injected
T1 construct: also called hCCL3
T1 sequence: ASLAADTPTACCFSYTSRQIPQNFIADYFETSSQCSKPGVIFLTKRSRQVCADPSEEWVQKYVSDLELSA

murine CCL2 = biological target: T2, murine CCL2 (mouse, UniProt P10148 24-148); assay: SPR, mutant R17 on CM5 chip
T2 construct: also called mCCL2

murine CCL3 = biological target: T3, murine CCL3 (mouse, UniProt P10855 24-92)
T3 sequence: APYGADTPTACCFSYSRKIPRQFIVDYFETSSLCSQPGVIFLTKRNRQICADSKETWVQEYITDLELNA

[1] = biological target: CCL2 (species not given); assay: SPR, R17 variant on CM5 chip; column ka x 10^6 M-1s-1
[2] = biological target: CCL2 (species not given); assay: SPR, R17 variant on CM5 chip; column KD (nM), kinetic
[3] = biological target: CCL3 (species not given); assay: SPR, R17 variant on CM5 chip; column KDeq (nM); ka, kd, KD printed n/a
[4] = biological target: CCL2 (species not given); assay: SPR, R17 variant on CM5 chip; column kd x 10^-3 s-1
[5] = biological target: CCL2 (species not given); assay: SPR, R17 variant on CM5 chip; column KDeq (nM)

T2 sequence (P10148 24-148 limits assumed): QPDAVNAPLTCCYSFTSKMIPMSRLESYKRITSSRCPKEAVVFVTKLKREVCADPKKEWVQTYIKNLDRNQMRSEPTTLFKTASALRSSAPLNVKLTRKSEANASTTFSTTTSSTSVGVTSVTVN

B1: R17 264GG(G)DS267 chemokine null mutant (264LIDS267 replaced by 264GG(G)DS267, with a glycine insert (receptor)
chain: GPVGEPVASEINEASKVSSRLLTQDILFRKDRQATISLPIKLPVEDIITQTCDKITYGPLKFLDLLEKETAVLPLSTDITCPACLGRAVLVGKWECPAHVAVNESDLTVFGPNKEEHVPQFVTVQQPSDGKMQRLFFAKFLGTEESLAVLRVPGPDGHLCIQEALIHFKELSGAGVCSLWKANDSREEGLEMKQVDCLETTVLENQTCIATTLSKKIYHRLYCGERLMTGGQVSTRVLLTALGFYKRQPYTFHRVPKGMVYVHGGGDSGSEDYMEYSECEEVTPGRYEDKQISYTFYTDLFQTADGEPVLASVWGTSGLKDSAYESCAFVIPTKGRRKLVPRRIMSKCYPFRLTYHPSTMTVRLDVRVEKHHGATDQGFVFLKMESGTYSEGREYYLDRVLWGEDSSTNNVLQ
Question: Does B1 bind (human CCL3)?
Answer: no binding (tested: 100 nM)

B2: R17 266NAGAQ270 (R17 with 266DSGSE270 mutated to 266NAGAQ270), C-terminal His construct (receptor)
chain: GPVGEPVASEINEASKVSSRLLTQDILFRKDRQATISLPIKLPVEDIITQTCDKITYGPLKFLDLLEKETAVLPLSTDITCPACLGRAVLVGKWECPAHVAVNESDLTVFGPNKEEHVPQFVTVQQPSDGKMQRLFFAKFLGTEESLAVLRVPGPDGHLCIQEALIHFKELSGAGVCSLWKANDSREEGLEMKQVDCLETTVLENQTCIATTLSKKIYHRLYCGERLMTGGQVSTRVLLTALGFYKRQPYTFHRVPKGMVYVHLINAGAQDYMEYSECEEVTPGRYEDKQISYTFYTDLFQTADGEPVLASVWGTSGLKDSAYESCAFVIPTKGRRKLVPRRIMSKCYPFRLTYHPSTMTVRLDVRVEKHHGATDQGFVFLKMESGTYSEGREYYLDRVLWGEDSSTNNVLQ
Question: Does B2 bind (murine CCL2)?
Answer: no binding

Question: And the Kd (murine CCL3)?
Answer: 2.9 nM

Question: What about the koff (murine CCL3) of the same binder?
Answer: 0.061 s⁻¹

Question: What about the kon (murine CCL3) of the same binder?
Answer: 3.1e+07 M⁻¹ s⁻¹

Question: What about the t1/2 (murine CCL3) of the same binder?
Answer: 11.2 s

B3: R17GAG1 (R17 with residues 29 to 32 RKDR mutated to EDDE), C-terminal His construct (receptor)
chain: GPVGEPVASEINEASKVSSRLLTQDILFEDDEQATISLPIKLPVEDIITQTCDKITYGPLKFLDLLEKETAVLPLSTDITCPACLGRAVLVGKWECPAHVAVNESDLTVFGPNKEEHVPQFVTVQQPSDGKMQRLFFAKFLGTEESLAVLRVPGPDGHLCIQEALIHFKELSGAGVCSLWKANDSREEGLEMKQVDCLETTVLENQTCIATTLSKKIYHRLYCGERLMTGGQVSTRVLLTALGFYKRQPYTFHRVPKGMVYVHLIDSGSEDYMEYSECEEVTPGRYEDKQISYTFYTDLFQTADGEPVLASVWGTSGLKDSAYESCAFVIPTKGRRKLVPRRIMSKCYPFRLTYHPSTMTVRLDVRVEKHHGATDQGFVFLKMESGTYSEGREYYLDRVLWGEDSSTNNVLQ
notes: not shown: C-terminal 8-His tag
Question: How did the kon [1] turn out when B3 was run?
Answer: 1.2e+06 M⁻¹ s⁻¹

Question: What about the Kd [2] of the same binder?
Answer: 10 nM

Question: And the Kd [3]?
Answer: 0.8 nM

Question: What about the koff [4] of the same binder?
Answer: 0.0137 s⁻¹

Question: What about the Kd [5] of the same binder?
Answer: 31 nM

B4: R17GAG2 (R17 with residues 333 to 337 KGRRK mutated to DGEED), C-terminal His construct (receptor)
chain: GPVGEPVASEINEASKVSSRLLTQDILFRKDRQATISLPIKLPVEDIITQTCDKITYGPLKFLDLLEKETAVLPLSTDITCPACLGRAVLVGKWECPAHVAVNESDLTVFGPNKEEHVPQFVTVQQPSDGKMQRLFFAKFLGTEESLAVLRVPGPDGHLCIQEALIHFKELSGAGVCSLWKANDSREEGLEMKQVDCLETTVLENQTCIATTLSKKIYHRLYCGERLMTGGQVSTRVLLTALGFYKRQPYTFHRVPKGMVYVHLIDSGSEDYMEYSECEEVTPGRYEDKQISYTFYTDLFQTADGEPVLASVWGTSGLKDSAYESCAFVIPTDGEEDLVPRRIMSKCYPFRLTYHPSTMTVRLDVRVEKHHGATDQGFVFLKMESGTYSEGREYYLDRVLWGEDSSTNNVLQ
notes: as for B3
Question: Which results are given for B4?
Answer: kon [1]: 1.2e+06 M⁻¹ s⁻¹; Kd [2]: 9.5 nM; Kd [3]: 0.31 nM; koff [4]: 0.012 s⁻¹; Kd [5]: 40 nM
